Data reported in patent CN106749645A.

Biological target: HCV包膜糖蛋白
Assay: cell-based or functional assay

B1: 全人源抗HCV中和抗体TRN1002 (antibody)
heavy: QVQLVQSGAEVKKPGSSVRVSCKASGGTLGSFAGSWVRQAPGQGLEWIGGIIPMFRRTNYAQKFQGRVTITADESTGTTYLELSSLRSDDTAIYFCAREIPGYCTGGRCFGYFDYWGQGTLVTVSS
light: EIVLTQSPGTLSLSPGESATLSCRASQHVNSNFLAWYQQKRGQTPRLLIYAASSRATGIPDRFSGSGSGTDFTLTISRLEPEDFAVYYCQQYGTSLTFGQGTKVEIK
  Luciferase活性 (荧光值), HCVpp感染Huh7细胞: 100 %
